Assay results: patent CN117088975A

Target: ALB蛋白(天然提取)
Assay: AMC sensor, antibody immobilised at 10 ug/ml, ALB in gradient dilution in PBST

Kd: 1.85 nM | koff: 0.00241 s⁻¹ | kon: 1.3e+06 M⁻¹ s⁻¹
B1: Anti-ALB-2G9mut2 (antibody, mouse IgG1, kappa, V domains shown)
VH: QVQLQQSGAELVRPGSSVKISCKASGYAFSNYWMNWVKQRPGQGLEWIGQIYPGDGDTYYNGRFKGKATITADKSPTTAYMQLSSLTSEDSAVYVCARGVLLGSFDYWGQGTTLTVSS
VL: QIVLTQSPAIMSASPGEKVTMTCSASSSVSYMHWYQQKSGTSPKRWIYDTSKLASGVPVRFSGSGSGTSYSLTIRSMEAEDAATYYCQQWGSNPLTFGAGTKLELKR
